The record followed here is patent US20240252670A1 (TSINGHUA UNIVERSITY, published 2024).

This assay deals with T1, PD-L1 on the surface of murine cells (MC38, B16, wild-type DC 2.4) (murine, UniProt Q9EP73 19-290).
T1 construct: whole, on cells; also called PD-L1 antigen; Cd274 gene product
Nature of the assay: FACS on MC38 cells, FITC-labeled goat anti-human secondary antibody. The text has this: A. The histograms of different colors represent, from top to bottom, the fluorescence signals measured for the negative control (NC) group, the secondary antibody group, the anti-PD-L1 antibody group, the anti-PD-L1 THIOMAB group, and the ADC HE-S2 group, respectively. B. Mean fluorescence intensity (MFI) measured after treatment with different antibody-based drugs on MC38. NC group: the negative control only added with the isotype antibody, with no secondary antibody added for staining; secondary antibody group: the control group added with the isotype antibody and stained with fluorescent secondary antibody. Student's t test was used to compare significant differences between the groups, and p<0.0001 is represented by ****.
With PD-L1 positive MC38 as a platform, the inventors verified whether ADC HE-S2 and the gene-modified anti-PD-L1 THIOMAB retained the original antibody-antigen binding capacity by using a fluorescence activated cell sorting (FACS) technique. In the experiment, ADC HE-S2, anti-PD-L1 antibody (i.e., avelumab as described in Example 2) and anti-PD-L1 THIOMAB (i.e., mutant antibody prepared in Example 2) serving as primary antibodies were incubated with MC38 cells, such that the antibodies could be sufficiently contacted and bind to PD-L1 on the cell surfaces. After washing with PBS, the cells were treated with an FITC-labeled goat anti-human secondary antibody, and incubated in the dark for 30 min to allow the secondary antibody to bind fully to the primary antibodies. Simultaneously, two groups of negative controls were set, wherein one group was marked as a negative control (NC), only isotype control IgG was added to treat the cells, no staining was carried out, and the fluorescent background of the cells was represented; the other group was marked as a secondary antibody, and after addition of isotype control IgG, the secondary antibody was stained with FITC-labeled secondary antibody along with other experimental groups to characterize false positive fluorescence signals generated by non-specific binding of secondary antibodies to the cells. The stained MC38 cells were analyzed on a BD FACSAria™ III flow cytometer, and the strength of FITC fluorescence signals on MC38 cells treated with different antibody-based drugs was detected and compared, so as to characterize the affinity of ADC, THIOMAB and antibodies to PD-L1.

T1 sequence (Q9EP73 19-290): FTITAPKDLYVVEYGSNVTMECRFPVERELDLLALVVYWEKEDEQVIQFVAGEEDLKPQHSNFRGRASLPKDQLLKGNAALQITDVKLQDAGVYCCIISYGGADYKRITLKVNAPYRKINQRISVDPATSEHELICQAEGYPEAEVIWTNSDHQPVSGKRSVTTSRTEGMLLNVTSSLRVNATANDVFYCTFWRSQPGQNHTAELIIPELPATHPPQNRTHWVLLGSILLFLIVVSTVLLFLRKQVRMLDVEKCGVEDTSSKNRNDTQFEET

B1: anti-PD-L1 THIOMAB (avelumab with light chain V205C) (antibody, human IgG1, lambda)
heavy: not shown
light: QSALTQPASVSGSPGQSITISCTGTSSDVGGYNYVSWYQQHPGKAPKLMIYDVSNRPSGVSNRFSGSKSGNTASLTISGLQAEDEADYYCSSYTSSSTRVFGTGTKVTVLGQPKANPTVTLFPPSSEELQANKATLVCLISDFYPGAVTVAWKADGSPVKAGVETTKPSKQSNNKYAASSYLSLTPEQWKSHRSYSCQVTHEGSTCEKTVAPTECS
modifications: engineered cysteine (V205C; Cys 226 of SEQ ID NO: 9) generally capped with a free cysteine in the intact THIOMAB as expressed
notes: also called αPD-L1 THIOMAB LC-V205C
Turning to B1, the MFI is 449 and the “shift rate of the FITC positive signal relative to the NC group” value was 36.6%.

B2: anti-PD-L1 antibody avelumab (antibody, human IgG1, lambda)
heavy: not shown
light: QSALTQPASVSGSPGQSITISCTGTSSDVGGYNYVSWYQQHPGKAPKLMIYDVSNRPSGVSNRFSGSKSGNTASLTISGLQAEDEADYYCSSYTSSSTRVFGTGTKVTVLGQPKANPTVTLFPPSSEELQANKATLVCLISDFYPGAVTVAWKADGSPVKAGVETTKPSKQSNNKYAASSYLSLTPEQWKSHRSYSCQVTHEGSTVEKTVAPTECS
notes: also called MSB0010718C; Bavencio
Take B2: the MFI worked out at 445 and the “shift rate of the FITC positive signal relative to the NC group” value came to 35.7%.
